Patent US20240141039A1 (AGENUS, published 2024)

T1: full-length isoform 2 ECD of human CD96 with a C89S mutation (His-tagged) (human, UniProt P40200 22-519)
T1 construct: also called His-tagged isoform 2 of human CD96 with a C89S mutation; human CD96 extracellular domain isoform 2 C89S
T1 sequence: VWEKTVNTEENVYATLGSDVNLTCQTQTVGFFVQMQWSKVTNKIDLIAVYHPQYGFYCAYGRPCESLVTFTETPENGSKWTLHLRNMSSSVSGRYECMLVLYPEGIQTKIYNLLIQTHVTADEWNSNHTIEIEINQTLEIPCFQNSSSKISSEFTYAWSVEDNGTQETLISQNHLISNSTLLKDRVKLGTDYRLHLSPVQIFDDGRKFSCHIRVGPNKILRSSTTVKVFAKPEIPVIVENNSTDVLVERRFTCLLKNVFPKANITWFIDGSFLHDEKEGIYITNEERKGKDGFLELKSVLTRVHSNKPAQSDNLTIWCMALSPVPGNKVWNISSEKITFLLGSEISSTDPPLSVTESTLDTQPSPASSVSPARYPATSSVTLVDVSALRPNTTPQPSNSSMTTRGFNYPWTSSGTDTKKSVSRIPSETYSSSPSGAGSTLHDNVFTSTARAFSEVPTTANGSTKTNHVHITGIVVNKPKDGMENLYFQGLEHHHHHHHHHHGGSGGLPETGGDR

T2: wild type full-length human CD96 isoform 2 expressed on CHO cells (human, UniProt P40200-2 22-569)
T2 construct: whole, on cells; also called human CD96-CHO (isoform 2); human CD96 (iso2) CHO cells
T2 sequence (looked up): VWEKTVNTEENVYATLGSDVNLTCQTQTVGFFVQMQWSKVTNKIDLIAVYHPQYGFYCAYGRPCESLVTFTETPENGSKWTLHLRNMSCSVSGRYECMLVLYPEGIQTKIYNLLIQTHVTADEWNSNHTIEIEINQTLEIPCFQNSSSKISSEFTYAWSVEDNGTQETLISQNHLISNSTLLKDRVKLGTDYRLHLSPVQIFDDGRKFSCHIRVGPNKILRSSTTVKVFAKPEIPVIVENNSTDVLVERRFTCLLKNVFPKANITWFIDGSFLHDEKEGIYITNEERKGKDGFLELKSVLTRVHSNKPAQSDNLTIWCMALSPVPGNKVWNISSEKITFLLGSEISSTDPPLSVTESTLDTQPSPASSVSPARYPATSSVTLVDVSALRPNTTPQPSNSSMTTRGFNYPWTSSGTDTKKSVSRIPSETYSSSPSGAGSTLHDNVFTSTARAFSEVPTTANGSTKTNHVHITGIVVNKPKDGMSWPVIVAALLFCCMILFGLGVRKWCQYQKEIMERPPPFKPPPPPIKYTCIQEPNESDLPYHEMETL


Tests used:
[1] = molecular target: T1, full-length isoform 2 ECD of human CD96 …; assay: SPR Biacore T200, Protein A capture, 1:1 model, experiment #2
Description: Briefly, surface plasmon resonance experiments were performed using a Biacore T200 instrument, and the association rate (kₐ), dissociation rate (kd), and dissociation constant (KD) were calculated from each experiment using a 1:1 binding model with Biacore T200 Evaluation Software.
Multispecific molecules were captured using a 30-sec injection at a flow rate of 10 μl/min to reach about 350 resonance units (RUs). […] The sensor chip was regenerated between cycles with two 30-sec injections of 10 mM glycine, pH 1.5. Sensorgrams were evaluated and fit to a simple Langmuir 1:1 interaction model using the global data analysis option of BIAevaluation 3.0 software. Data quality was verified by visually inspecting deviations and curve fitting, and by evaluating the parameters of Rₘₐₓ, Chi2, and Tc.

[2] = molecular target: T2, wild type full-length human CD96 …; assay: flow cytometry on CHO cells expressing human CD96 isoform 2, PE anti-human IgG Fc detection
Description: For the antibody binding assay, a frozen aliquot of human CD96-CHO cells (isoform 1 or isoform 2) was thawed at 37° C. and then transferred to a tube containing DPBS supplemented with 0.5% Bovine Serum Albumin and 0.05% Sodium Azide (FACS Buffer). Cells were centrifuged at 300 g for five minutes. The supernatant was discarded, and cells resuspended in FACS buffer were seeded in a 96-well U-bottom tissue culture plate at a density of 2×10⁵ cells per well in 50 μL. In a separate microplate, a 2× concentrated intermediate stock of each antibody was prepared. Antibodies were serially diluted 1-to-3 in FACS buffer. A total of 11 working dilutions ranging from 60 μg/mL to 0.001 μg/mL were prepared. Fifty microlitres of each dilution were then transferred to the microplate containing human CD96-CHO cells. The cells were then incubated for 45 minutes at 4° C. […] After a 30-minute incubation on ice, the cells were washed twice with cold FACS Buffer, and the cells were analyzed by flow cytometry (BD LSR Fortessa Flow Cytometer). The data were analyzed using the FlowJo software by sequentially gating the FSC-A vs. SSC-A, and SSC-H vs. SSC-A. Mean fluorescence intensity (MFI) values for PE were calculated, and the data were plotted by GraphPad Prism software.

[3] = molecular target: T3, wild type full-length cynomolgus monkey TIGIT expressed on CHO cells (cynomolgus monkey, UniProt A0A7N9I9V4 89-312); assay: flow cytometry, blocking of CD155-Fc-PE binding to cynomolgus TIGIT CHO cells, geomean of 2 experiments
T3 construct: whole, on cells; also called cynomolgus TIGIT-CHO cells
T3 sequence (A0A7N9I9V4 entry or part of it): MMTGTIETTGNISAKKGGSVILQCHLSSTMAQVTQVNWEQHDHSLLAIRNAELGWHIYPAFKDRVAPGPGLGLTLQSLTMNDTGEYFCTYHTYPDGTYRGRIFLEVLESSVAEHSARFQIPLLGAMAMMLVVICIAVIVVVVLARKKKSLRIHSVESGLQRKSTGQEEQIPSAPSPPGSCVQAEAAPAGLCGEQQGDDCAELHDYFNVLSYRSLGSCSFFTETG

Kd [1] [nM] | koff [1] [s⁻¹] | kon [1] [M⁻¹ s⁻¹] | EC50 (read off the curve) [2] [µg/mL] | IC50 [3] [µg/mL] | Binder
85 | 0.00083 | 9760 | ~0.2 | 2.35 | anti-TIGIT×CD96 multispecific molecule BA123 (bispecific antibody, human IgG1, kappa, lambda, copies: 1 + 1 + 1 + 1) heavy 1: QVQLVQSGAEVKKPGASVKVSCKASGYTFTSYGISWVRQAPGQGLEWMGWISAYNANTNYAQKLQGRVTMTTDTSTSTAYMELRSLRSDDTAVYYCARSAGVLGGMDVWGRGTLVTVSSASTKGPSVFPLAPSSKSTSGGTAALGCLVKDYFPEPVTVSWNSGALTSGVHTFPAVLQSSGLYSLSSVVTVPSSSLGTQTYICNVNHKPSNTKVDKRVEPKSCDKTHTCPPCPAPELLGGPDVFLFPPKPKDTLMISRTPEVTCVVVDVSHEDPEVKFNWYVDGVEVHNAKTKPREEQYNSTYRVVSVLTVLHQDWLNGKEYKCKVSNKALPAPIEKTISKAKGQPREPQVYTLPPSREEMTKNQVSLSCAVKGFYPSDIAVEWESNGQPENNYKTTPPVLDSDGSFFLVSKLTVDKSRWQQGNVFSCSVMHEALHNHYTQKSLSLSPG light 1: not shown heavy 2: EVQLVQSGAEVKKPGSSVKVSCKASGYTFASYGISWVRQAPGQGLEWMGGITPFFNRVDVAEKFQGRVTITADKSTSTAYIELSSLRSEDTAVYYCARDLRRGGVGDAFDIWGRGTLVTVSSASTKGPSVFPLAPSSKSTSGGTAALGCLVKDYFPEPVTVSWNSGALTSGVHTFPAVLQSSGLYSLSSVVTVPSSSLGTQTYICNVNHKPSNTKVDKRVEPKSCDKTHTCPPCPAPELLGGPDVFLFPPKPKDTLMISRTPEVTCVVVDVSHEDPEVKFNWYVDGVEVHNAKTKPREEQYNSTYRVVSVLTVLHQDWLNGKEYKCKVSNKALPLPEEKTISKAKGQPREPQVYTLPPSREEMTKNQVSLWCLVKGFYPSDIAVEWESNGQPENNYKTTPPVLDSDGSFFLYSKLTVDKSRWQQGNVFSCSVMHEALHNHYTQKSLSLSPG light 2: QSALTQPRSVSGSPGQSVTISCTGTSPDVGSHAYRSWYQQHPGKAPKLMIYEVSYRPSGVSNRFSGSKSGNTASLTISGLQAEDEADYYCSSYPPSSATVFGAGTKLTVLGQPKAAPSVTLFPPSSEELQANKATLVCLISDFYPGAVTVAWKADSSPVKAGVETTTPSKQSNNKYAASSYLSLTPEQWKSHRSYSCQVTHEGSTVEKTVAPTEC
19.7 | 0.000796 | 40500 | ~0.03 | 2.81 | anti-TIGIT×CD96 multispecific molecule BA127 (bispecific antibody, human IgG1, kappa, lambda, Anti-CD96 arm = BA139, anti-TIGIT arm = BA150; copies: 1 + 1 + 1 + 1) heavy 1: QVQLVQSGAEVKKPGASVKVSCKASGYTFTTYALHWVRQAPGQRLEWMGWINTGSGDTKYSQKFQGRVTITRDTSASTAYMELSSLRSEDTAVYYCARSLGVYYGMDVWGQGTLVTVSSASTKGPSVFPLAPSSKSTSGGTAALGCLVKDYFPEPVTVSWNSGALTSGVHTFPAVLQSSGLYSLSSVVTVPSSSLGTQTYICNVNHKPSNTKVDKRVEPKSCDKTHTCPPCPAPELLGGPDVFLFPPKPKDTLMISRTPEVTCVVVDVSHEDPEVKFNWYVDGVEVHNAKTKPREEQYNSTYRVVSVLTVLHQDWLNGKEYKCKVSNKALPAPIEKTISKAKGQPREPQVYTLPPSREEMTKNQVSLSCAVKGFYPSDIAVEWESNGQPENNYKTTPPVLDSDGSFFLVSKLTVDKSRWQQGNVFSCSVMHEALHNHYTQKSLSLSPG light 1: not shown heavy 2: EVQLVQSGAEVKKPGSSVKVSCKASGYTFASYGISWVRQAPGQGLEWMGGITPFFNRVDVAEKFQGRVTITADKSTSTAYIELSSLRSEDTAVYYCARDLRRGGVGDAFDIWGRGTLVTVSSASTKGPSVFPLAPSSKSTSGGTAALGCLVKDYFPEPVTVSWNSGALTSGVHTFPAVLQSSGLYSLSSVVTVPSSSLGTQTYICNVNHKPSNTKVDKRVEPKSCDKTHTCPPCPAPELLGGPDVFLFPPKPKDTLMISRTPEVTCVVVDVSHEDPEVKFNWYVDGVEVHNAKTKPREEQYNSTYRVVSVLTVLHQDWLNGKEYKCKVSNKALPLPEEKTISKAKGQPREPQVYTLPPSREEMTKNQVSLWCLVKGFYPSDIAVEWESNGQPENNYKTTPPVLDSDGSFFLYSKLTVDKSRWQQGNVFSCSVMHEALHNHYTQKSLSLSPG light 2: QSALTQPRSVSGSPGQSVTISCTGTSPDVGSHAYRSWYQQHPGKAPKLMIYEVSYRPSGVSNRFSGSKSGNTASLTISGLQAEDEADYYCSSYPPSSATVFGAGTKLTVLGQPKAAPSVTLFPPSSEELQANKATLVCLISDFYPGAVTVAWKADSSPVKAGVETTTPSKQSNNKYAASSYLSLTPEQWKSHRSYSCQVTHEGSTVEKTVAPTEC
